From patent US20090253131A1, “HYBRID FUSION REPORTER AND USES THEREOF” (Promega Corporation, priority 2007, published 2009)
Changes are numbered by the printed parent chain. In names and notes the source's numbering stands.

Columns and labels:
[1] = Binding of DhaA mutants to carboxytetramethylrhodamine chloroalkane substrate
Protocol: DhaA.H272 mutants, i.e. H272F/G/A/Q, bound to carboxytetramethylrhodamine-C10H21NO2—Cl.
A control mutant, DhaA.D106Q, single mutants DhaA.D106C, DhaA.D106Y, and DhaA.D106E, as well as double mutants DhaA.D106C:H272F, DhaA.D106E:H272F, DhaA.D106Q:H272F, and DhaA.D106Y:H272F were analyzed for binding to carboxytetramethylrhodamine-C10H21NO2—Cl. Carboxytetramethylrhodamine-C10H21NO2—Cl bound to DhaA.D106C, DhaA.D106C:H272F, DhaA.D106E, and DhaA.H272F. Thus, the bond formed between carboxytetramethylrhodamine-C10H21NO2—Cl and cysteine or glutamate at residue 106 in a mutant DhaA is stable relative to the bond formed between carboxytetramethylrhodamine-C10H21NO2—Cl and DhaA.WT. Other substitutions at position 106 alone or in combination with substitutions at other residues in DhaA may yield similar results. Further, certain substitutions at position 106 alone or in combination with substitutions at other residues in DhaA may result in a mutant DhaA that forms a bond with only certain substrates.

[2] = MagneGST-based labeling assay of DhaA mutants, biotin substrate; format: biochemical
Excerpt: An automated MagneGST™-based assay was used to screen the DhaA mutant protein libraries. […] The hits identified by the initial primary screen were located in the master plates, consolidated, re-grown and reanalyzed using the MagneGST™ assay.
In order to distinguish these recombined protein mutants from the mutants identified in round one of screening (first generation), they are referred to as “second generation” DhaA mutants.

[3] = Fluorescence polarization (FP) labeling kinetics of purified DhaA mutants, TMR substrate; format: biochemical
Excerpt: (§1) Fluorescence polarization (FP) is ideal for the study of small fluorescent ligands binding to proteins. It is unique among methods used to analyze molecular binding because it gives direct nearly instantaneous measure of a substrate bound/free ratio. Therefore, an FP assay was developed as an alternative approach to fluorimage gel analysis of the purified DhaA mutants.
(§2) Based on the sensitivity and truly homogenous nature of this assay, FP was used to characterize the labeling properties of the purified DhaA mutants with the fluorescently coupled substrates. The data from these studies was then used to calculate a second order rate constant for each DhaA mutant-substrate pair.

[4] = FP
Excerpt: as §1, §2

[5] = biological target: T1, rapamycin-mediated FRB/FKBP protein-protein interaction (Homo sapiens, UniProt P42345+P62942); assay: Protein complementation labeling (PCL) in vitro with HT2 fragments, rapamycin-mediated FRB/FKBP; format: biochemical; settings: with or without 1 μM rapamycin, 0.1 μM TMR ligand 2 hours
T1 construct: made in house; host or cells: cell-free: RiboMax transcription, Wheat Germ Plus translation
Protocol: The rapamycin-mediated FRB/FKBP protein-protein interaction and a mutant DhaA were employed in a PCL. FRB and FKBP will only interact when rapamycin is present. Therefore, if PCL is successful, the reconstituted reporter is labeled only when the fusion proteins are incubated together in the presence of rapamycin.
Two pF9 (Kan) vectors were generated which contained either FRB or FKBP ORF plus the linker sequence (GlyGlyGlyGlySer)2 upstream of the SgfI/PmeI sites. A mutant DhaA gene (HT2) at positions corresponding to those useful to prepare Renilla luciferase fragments for PCS (see Example 2 and FIG. 7) with FRB-N-terminal and FKBP-C-terminal fusions. HT2 N- and C-termini halves were amplified using PCR primers and cloned into the SgfI/PmeI sites. PCL was performed in vitro by expressing each clone individually using RiboMax followed by Wheat Germ Plus reactions (HT2). Protein was expressed with or without FluoroTect™. FluoroTect™ labeling ensured that all proteins were expressed in approximately equal amounts (data not shown). Unlabeled proteins were then incubated alone or with the appropriated partner with or without 1 μM rapamycin. Ten μl of these products were then incubated with 0.1 μM of a TMR labeled ligand for the mutant dehalogenase, for 2 hours in the dark. […]

[6] = Kinetic labeling studies of purified DhaA mutants, fluorimage gel analysis; format: biochemical; settings: fluorimaged gel, 10 ng protein, refined time-course
Protocol: Preliminary kinetic labeling studies were performed using several DhaA.H272F derived mutants. […] A more expanded time course analysis was performed on the DhaA.H272F A7 and the two second generation DhaA.H272F mutants A7YM and H11YL. […] The fluorescent bands on gel were quantitated and the relative rates of product formation determined. In order to determine a labeling rate, the concentration of the H11YL was reduced from 50 ng to 10 ng and a more refined time-course was performed. Under these labeling conditions a linear initial rate could be measured. Quantitation of the fluorimaged gel data allowed second order rate constants to be calculated.

CHO cells = assay: Protein complementation labeling (PCL) with HT2 in transiently transfected CHO cells; format: cell-based; settings: +/−1 μM rapamycin 2.5 hours, 1.0 μM HaloTag TMR ligand 1 hour
Protocol: For transient transfections, CHO cells were plated in a 6 well plate and transfected in duplicate using TransIT®-CHO. The next day, cells were incubated +/−1 μM rapamycin for 2.5 hours followed by 1.0 μM HaloTag® TMR ligand for 1 hour. Cells were washed in PBS, trypsinized, pelleted and mechanically lysed in 200 ul PBS with protease inhibitor and RQDNase I. Normalized amounts of proteins were microwaved for 30 seconds on high and run on a denaturing NuPAGE® gel.

T1 sequence (P42345 2012-2144 limits assumed): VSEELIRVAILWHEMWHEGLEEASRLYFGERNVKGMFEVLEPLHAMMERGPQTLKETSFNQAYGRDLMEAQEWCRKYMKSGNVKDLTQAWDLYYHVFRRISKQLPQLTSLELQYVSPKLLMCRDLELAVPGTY
T1 sequence (P62942 whole entry, the tested form may be a part): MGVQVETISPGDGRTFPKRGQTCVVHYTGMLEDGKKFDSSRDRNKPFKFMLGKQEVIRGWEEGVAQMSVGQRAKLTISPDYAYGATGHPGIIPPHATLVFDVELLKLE

B1: DhaA.D106C: DhaA with Asp106 replaced by Cys (protein, UniProt P0A3G2 1-293, looked up, variant D106C)
Haloalkane dehalogenase: MSEIGTGFPFDPHYVEVLGERMHYVDVGPRDGTPVLFLHGNPTSSYLWRNIIPHVAPSHRCIAPDLIGMGKSDKPDLDYFFDDHVRYLDAFIEALGLEEVVLVIHCWGSALGFHWAKRNPERVKGIACMEFIRPIPTWDEWPEFARETFQAFRTADVGRELIIDQNAFIEGALPKCVVRPLTEVEMDHYREPFLKPVDREPLWRFPNELPIAGEPANIVALVEAYMNWLHQSPVPKLLFWGTPGVLIPPAEAARLAESLPNCKTVDIGPGLHYLQEDNPDLIGSEIARWLPAL
[1]
  binding to carboxytetramethylrhodamine-C10H21NO2—Cl: bound

B2: DhaA.D106C:H272F: DhaA double mutant D106C and H272F (protein, UniProt P0A3G2 1-293, looked up, variant D106C H272F)
Haloalkane dehalogenase: B1 Haloalkane dehalogenase with H272F
[1]
  binding to carboxytetramethylrhodamine-C10H21NO2—Cl: bound

B3: YC: DhaA.H272F based mutant Y273C (protein, UniProt P0A3G2 1-293, looked up, variant H272F Y273C)
Haloalkane dehalogenase: B1 Haloalkane dehalogenase with C106D, H272F, Y273C
[2]
  improvement over the parental clones using the biotin-PEG4-14-Cl substrate: significantly improved

B4: YL: DhaA.H272F based mutant Y273L (protein, UniProt P0A3G2 1-293, looked up, variant H272F Y273L)
Haloalkane dehalogenase: B1 Haloalkane dehalogenase with C106D, H272F, Y273L
[2]
  improvement over the parental clones using the biotin-PEG4-14-Cl substrate: significantly improved

B5: DhaA.H272F: Rhodococcus rhodochrous dehalogenase DhaA with His272 replaced by Phe (protein, UniProt P0A3G2 1-293, looked up, variant H272F)
Haloalkane dehalogenase: B1 Haloalkane dehalogenase with C106D, H272F
[1]
  binding to carboxytetramethylrhodamine-C10H21NO2—Cl: bound
[3]; relative to DhaA.H272F H11YL
  fold more protein required in the reaction to obtain measurable rates: ~420 fold

B6: DhaA.D106E: DhaA single mutant D106E (protein, UniProt P0A3G2 1-293, looked up, variant D106E)
Haloalkane dehalogenase: B1 Haloalkane dehalogenase with C106E
[1]
  binding to carboxytetramethylrhodamine-C10H21NO2—Cl: bound

B7: YM: DhaA.H272F based mutant Y273M (protein, UniProt P0A3G2 1-293, looked up, variant H272F Y273M)
Haloalkane dehalogenase: B1 Haloalkane dehalogenase with C106D, H272F, Y273M
[2]
  improvement over the parental clones using the biotin-PEG4-14-Cl substrate: significantly improved

B8: H11YL: second generation DhaA.H272F mutant, H11 recombined with Y273L (SEQ ID NO:3) (protein)
chain: SEIGTGFPFDPHYVEVLGERMHYVDVGPRDGTPVLFLHGNPTSSYLWRNIIPHVAPSHRCIAPDLIGMGKSDKPDLDYFFDDHVRYLDAFIEALGLEEVVLVIHDWGSALGFHWAKRNPERVKGIACMEFIRPIPTWDEWPEFARETFQAFRTADVGRELIIDQNAFIEGALPMGVVRPLTEVEMDHYREPFLKPVDREPLWRFPNELPIAGEPANIVALVEAYMNWLHQSPVPKLLFWGTPGVLIPPAEAARLAESLPNCKTVDIGPGLFLLQEDNPDLIGSEIARWLPAL
modifications: A synthetic mutant dehalogenase sequence
[4]
  carboxyfluorescein-C10H21NO2—Cl labeling rate slower/lower than carboxytetramethylrhodamine-C10H21NO2—Cl labeling rate: 100 fold
[3]
  second order rate constant with carboxytetramethylrhodamine-C10H21NO2—Cl: 2.2e+06 M⁻¹ s⁻¹
[5]
  TMR labeling: labeled
[6]
  second order rate constant for carboxytetramethylrhodamine-C10H21NO2—Cl labeling: 500000 M⁻¹ s⁻¹
CHO cells
  TMR labeling in CHO cells: labeled irrespective of rapamycin addition
